Reference: patent USRE46211

How the values were obtained:
[1] = biological target: HP8/HEVIN, extracellular matrix protein (UniProt Q14515); assay: binding of COS-7 expressed antibody to HP8; method and unit not given
[2] = biological target: mouse myosin IIb (myosin heavy chain IIb), 200 kDa skeletal muscle protein (mouse) (UniProt Q5SX39); assay: cell-based or functional assay
UniProt Q5SX39, sequence (Q5SX39 whole entry): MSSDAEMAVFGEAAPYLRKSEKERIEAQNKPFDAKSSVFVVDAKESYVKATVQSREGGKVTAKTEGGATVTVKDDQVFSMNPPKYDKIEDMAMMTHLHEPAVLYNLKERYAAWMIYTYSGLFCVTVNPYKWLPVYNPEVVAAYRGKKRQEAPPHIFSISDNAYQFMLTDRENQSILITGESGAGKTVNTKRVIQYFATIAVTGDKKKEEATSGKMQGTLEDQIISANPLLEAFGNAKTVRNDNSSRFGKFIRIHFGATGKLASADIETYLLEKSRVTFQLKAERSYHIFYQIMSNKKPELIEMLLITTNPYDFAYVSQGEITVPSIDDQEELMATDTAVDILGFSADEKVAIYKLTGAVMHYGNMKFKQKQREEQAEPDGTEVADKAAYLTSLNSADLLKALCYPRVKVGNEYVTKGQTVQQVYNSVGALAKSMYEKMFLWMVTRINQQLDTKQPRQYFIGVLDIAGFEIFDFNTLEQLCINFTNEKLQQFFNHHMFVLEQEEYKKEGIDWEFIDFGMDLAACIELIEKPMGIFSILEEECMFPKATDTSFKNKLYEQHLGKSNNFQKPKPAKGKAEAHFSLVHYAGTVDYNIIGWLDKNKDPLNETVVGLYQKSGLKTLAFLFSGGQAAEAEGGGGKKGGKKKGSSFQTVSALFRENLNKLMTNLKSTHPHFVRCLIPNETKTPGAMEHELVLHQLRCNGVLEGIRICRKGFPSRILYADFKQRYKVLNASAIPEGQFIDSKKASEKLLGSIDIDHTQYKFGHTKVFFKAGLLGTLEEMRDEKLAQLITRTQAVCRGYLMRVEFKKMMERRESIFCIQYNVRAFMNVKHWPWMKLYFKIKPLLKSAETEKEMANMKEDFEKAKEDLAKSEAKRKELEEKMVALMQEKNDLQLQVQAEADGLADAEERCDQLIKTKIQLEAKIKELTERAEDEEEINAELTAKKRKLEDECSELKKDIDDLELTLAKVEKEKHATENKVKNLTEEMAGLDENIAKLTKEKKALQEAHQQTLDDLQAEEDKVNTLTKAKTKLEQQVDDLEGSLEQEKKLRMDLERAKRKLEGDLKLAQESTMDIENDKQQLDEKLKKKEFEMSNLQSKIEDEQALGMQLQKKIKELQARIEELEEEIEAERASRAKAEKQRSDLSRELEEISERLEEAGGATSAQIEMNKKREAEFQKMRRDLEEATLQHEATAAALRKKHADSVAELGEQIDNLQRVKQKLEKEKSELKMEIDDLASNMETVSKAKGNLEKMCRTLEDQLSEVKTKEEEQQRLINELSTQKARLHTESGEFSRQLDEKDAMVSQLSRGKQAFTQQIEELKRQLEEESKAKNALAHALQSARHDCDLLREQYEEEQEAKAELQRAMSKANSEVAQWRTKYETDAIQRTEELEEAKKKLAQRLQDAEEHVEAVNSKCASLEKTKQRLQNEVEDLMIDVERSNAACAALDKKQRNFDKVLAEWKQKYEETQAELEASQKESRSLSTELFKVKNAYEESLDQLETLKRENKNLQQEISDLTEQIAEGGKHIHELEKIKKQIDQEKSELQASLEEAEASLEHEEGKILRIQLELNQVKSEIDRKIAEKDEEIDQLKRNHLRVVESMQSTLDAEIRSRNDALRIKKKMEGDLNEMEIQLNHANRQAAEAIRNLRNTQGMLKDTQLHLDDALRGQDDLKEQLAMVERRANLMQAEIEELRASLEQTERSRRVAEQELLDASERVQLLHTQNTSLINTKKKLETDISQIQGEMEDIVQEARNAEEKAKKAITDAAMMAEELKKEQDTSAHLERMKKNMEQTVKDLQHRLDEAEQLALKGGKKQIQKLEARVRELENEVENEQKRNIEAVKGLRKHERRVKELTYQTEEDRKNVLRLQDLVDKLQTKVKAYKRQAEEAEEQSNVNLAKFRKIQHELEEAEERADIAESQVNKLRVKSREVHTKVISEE

UniProt Q14515, sequence (Q14515 17-664 limits assumed): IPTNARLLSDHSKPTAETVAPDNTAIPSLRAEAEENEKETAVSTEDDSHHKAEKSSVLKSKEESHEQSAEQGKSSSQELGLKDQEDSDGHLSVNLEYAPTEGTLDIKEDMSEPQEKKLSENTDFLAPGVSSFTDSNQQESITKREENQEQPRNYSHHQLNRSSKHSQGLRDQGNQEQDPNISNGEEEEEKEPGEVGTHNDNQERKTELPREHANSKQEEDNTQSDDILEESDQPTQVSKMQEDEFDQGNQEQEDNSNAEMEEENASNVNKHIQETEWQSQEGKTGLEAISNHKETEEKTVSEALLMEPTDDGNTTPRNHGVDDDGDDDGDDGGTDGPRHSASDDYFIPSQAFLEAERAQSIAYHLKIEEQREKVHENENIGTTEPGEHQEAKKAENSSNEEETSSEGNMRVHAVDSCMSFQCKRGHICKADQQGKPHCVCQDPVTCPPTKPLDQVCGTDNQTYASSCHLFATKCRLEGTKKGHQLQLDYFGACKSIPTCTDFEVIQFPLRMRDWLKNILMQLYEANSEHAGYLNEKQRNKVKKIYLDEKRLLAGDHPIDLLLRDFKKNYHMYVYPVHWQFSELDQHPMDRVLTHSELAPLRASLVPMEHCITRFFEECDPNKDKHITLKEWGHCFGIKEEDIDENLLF

Substance	Antibody Specificity, HP8 [1]	localization of intravenously injected scFv fragments in tissues of FVB mice (histology with anti-his6 antibody) [2]
mAb 3E10 VH31 mutant heavy chain with Vk residue 32 mutant light chain (Y to F, L CDR1) (antibody)	2.76	
mAb 3E10 scFv containing 3E10 VH and VkIII (Vk placed N-terminal of VH)		20%
mAb 3E10 VH31 mutant heavy chain with Vk residue 27C mutant light chain (S to D, L CDR1) (antibody)	0.26	
recombinant mAb 3E10, native heavy chain with native (anti-dsDNA kIII) light chain, expressed in COS-7 cells (antibody)	2.02	

Other lines, results leading:

Antibody Specificity, HP8 [1]	localization of intravenously injected scFv fragments in tissues of FVB mice (histology with anti-his6 antibody) [2]	Substance
0.2		mAb 3E10 VH31 mutant heavy chain with Vk residue 94 mutant light chain (F to D, L CDR3) (antibody)
1.21		mAb 3E10 VH31 mutant heavy chain with Vk residue 92 mutant light chain (R to N, L CDR3) (antibody)
1.3		mAb 3E10 VH31 mutant heavy chain (D to N at residue 31, H CDR1) with native light chain (antibody)
